The record followed here is article PMC8956578, “The inner side of yeast PCNA contributes to genome stability by mediating interactions with Rad18 and the replicative DNA polymerase δ” (Scientific Reports, 2022).

This data set concerns the molecule itself. The experiment in a line: native gel or EMSA; increasing concentrations of purified wild-type and mutant PCNA on a 12% non-denaturing polyacrylamide gel. (In general: In EMSA bound probe runs differently from free probe, usually more slowly.)

B1: wild-type PCNA (proliferating cell nuclear antigen), purified (natural protein, yeast, UniProt P15873 1-258, looked up)
chain: MLEAKFEEASLFKRIIDGFKDCVQLVNFQCKEDGIIAQAVDDSRVLLVSLEIGVEAFQEYRCDHPVTLGMDLTSLSKILRCGNNTDTLTLIADNTPDSIILLFEDTKKDRIAEYSLKLMDIDADFLKIEELQYDSTLSLPSSEFSKIVRDLSQLSDSINIMITKETIKFVADGDIGSGSVIIKPFVDMEHPETSIKLEMDQPVDLTFGAKYLLDIIKGSSLSDRVGIRLSSEAPALFQFDLKSGFLQFFLAPKFNDEE
notes: PCNA (POL30), yeast; open reading frame cloned in N-terminal fusion with GST; also called Pol30; source: protease deficient yeast strain BJ5464, galactose inducible promoter (pBJ842 backbone), purified
The term stoichiometry N denotes the number of molecules, sites or subunits per partner or assembly. For the protein B1, the “stoichiometry N” value stood at 3.
